This is an account of results in patent US8894997B2.

Assay [1] addresses 1918 HA displayed on virus-like particles, reconstituted 1918 virus or transfected mammalian cells (influenza A/South Carolina/1/18 (H1N1) virus).
Assay [2] concerns the target HA of A/Mexico/4108/2009 virus (influenza A/Mexico/4108/2009 (H1N1) virus).
Assay [3] has as its target Recombinant A/South Carolina/1/1918 virus HA (influenza A/South Carolina/1/18 (H1N1) virus).
Assay [4] concerns the target 1918 HA displayed on virus-like particles, reconstituted 1918 virus or transfected mammalian cells (influenza A/South Carolina/1/18 (H1N1) virus). This is another data set of the same source.
The target of assay [5] is HA of influenza A/Swine/Iowa/15/30 (H1N1) virus (influenza A/Swine/Iowa/15/30 (H1N1) virus).
For assay [6], the target named is HA of influenza A/USSR/92/77 (H1N1) virus (influenza A/USSR/92/77 (H1N1) virus).
Assay [7] concerns the target HA of influenza A/Weiss/43 (H1N1) virus (influenza A/Weiss/43 (H1N1) virus).

As to “Normal mouse serum (polyclonal serum or antibody)”, the HAI, reciprocal titer of serum (reciprocal titer) in assay [1] and in assay [2] was < 10 each time.
For mAb 1F1 (antibody), in assay [3], the Kd (commonly the equilibrium constant for the complex coming apart) amounted to 5.4 nM, the koff (commonly a measure of how fast the partners let go of each other) is 0.00017 s⁻¹ and the kon (commonly the rate constant with which the complex forms) came out at 31000 M⁻¹ s⁻¹. The same substance had a Specific HAI activity in assay [4] of 0.08 µg/mL. The substance further came in with a Specific HAI activity in assay [5] of 0.04 µg/mL. Also, the HAI, specific activity in assay [1] stood at 0.04 µg/mL. Moreover, in assay [2], the HAI, specific activity was > 5 µg/mL and the Neut Ab, specific activity is > 5 µg/mL. Also, in assay [6], the Specific HAI activity is 0.16 µg/mL and the specific neutralizing activity is 0.88 µg/mL. The substance also returned a specific neutralizing activity in assay [7] of 1.8 µg/mL.
